Measurements as given in doi:10.1101/2020.08.31.274704.

How the values were obtained:
[1] = biological target: prefusion stabilized trimeric SARS-CoV-2 spike protein ectodomain (S-ECD) (SARS-CoV-2) (UniProt P0DTC2); assay: BLI
[2] = biological target: prefusion stabilized trimeric SARS-CoV-2 spike protein ectodomain (S-ECD) (SARS-CoV-2) (UniProt P0DTC2); assay: ELISA

## ACE2 monomer, ACE2(1-615)-(GGGGS)5-HRV3C-eGFP-His8 (from UniProt Q9BYF1-1 18-615) (domain or fragment)
[1]
  Kd: 25 nM
[2]
  IC50: 27 nM
